Reference: paper PMC11199686

Experiments:
[1] = target: fibrin clots formed in human plasma (human (endogenous in plasma)) (UniProt P02679); experiment: cross-linking; 125I-ligand (25,000 cpm) with 0.9% plasma and 20 μg fibrinogen in 50 μl HEPES-1/2-saline, 20 mM CaCl2, 16 h, 37°C; cross-linking by the FXIIIa of the plasma; washed clots on reducing SDS-PAGE (4-12%), autoradiography
[2] = target: fibrin clots formed in human plasma (human (endogenous in plasma)) (UniProt P02679); experiment: co-sedimentation; clots formed in 45% human plasma with 20 mM CaCl2 in the presence of 125I-ligand (25,000 cpm), 40 min, 37°C, at about 70 mM, 140 mM or 1 M salt; clots spun at 1,000 x g and washed three times in reaction buffer; bound = input minus cpm in supernatants
[3] = target: fibrin clots formed in human plasma (human (endogenous in plasma)) (UniProt P02679); experiment: co-sedimentation; time course: enhanced clots formed in plasma with 125I-ligand (25,000 cpm), eight times from 0 to 960 min at 37°C; washed with HEPES-1/2-saline (non-denaturing)
[4] = target: fibrin made from purified fibrinogen with thrombin (UniProt P02679); experiment: radioligand binding; serial dilutions of 125I-ligand from 500,000 cpm/well on fibrinogen-, fibrin- or BSA-coated Maxisorp wells; 30 min, 37°C; 25 mM HEPES-0.1% Tween 20 pH 7.4 (20 mM in the legend), without or with 5 mg/ml fluid-phase BSA; bound label eluted with 0.1 M NaOH; Scatchard plot
[5] = target: fibrin clots formed in human plasma (human (endogenous in plasma)) (UniProt P02679); experiment: co-sedimentation; enhanced clots: as the plasma clots but with extra fibrinogen (2 mg/ml) added; 40 min, 37°C; 70 mM, 140 mM or 1 M salt; washed with reaction buffer (HEPES-1/2-saline at 70 mM)
[6] = target: fibrin made from purified fibrinogen with thrombin (UniProt P02679); experiment: co-sedimentation; fibrin-only clots: 3.5 mg/ml purified fibrinogen with 125I-ligand (25,000 cpm) in 10 mM HEPES, 70 mM NaCl, 5 mM CaCl2 pH 7.4, clotted with thrombin (8.75 μg/ml), 40 min, 37°C; washed with HEPES-1/2-saline
[7] = target: fibrin made from purified fibrinogen with thrombin (UniProt P02679); experiment: radioligand binding; saturation: fixed 125I-factor H (250,000 cpm, 80 ng/well) mixed with unlabeled factor H (0-5,120 ng/well) on fibrin-coated wells; 30 min, 37°C
[8] = target: fibrin clots formed in human plasma (human (endogenous in plasma)) (UniProt P02679); experiment: ELISA; levels of endogenous factor H (captured on monoclonal MRCOX23) and C1q (captured on ovalbumin antigen-antibody complexes) in citrated plasma and in the serum from the same plasma; the loss on clotting is taken as binding to clots
[9] = target: fibrin clots formed in human plasma (human (endogenous in plasma)) (UniProt P02679); experiment: co-sedimentation; time course: enhanced clots formed in plasma with 125I-ligand (25,000 cpm), eight times from 0 to 960 min at 37°C; washed three times with 10 mM HEPES, 70 mM NaCl, 0.5 mM EDTA, 5 M urea pH 7.4; what stays is judged covalently bound
[10] = target: fibrin made from purified fibrinogen with thrombin (UniProt P02679); experiment: radioligand binding; 125I-ligand (100,000 cpm) on fibrin-coated wells in veronal buffer ([…] sodium barbital, […] CaCl2, 0.5 mM MgCl2, pH 7.4) with 20, 75 or 150 mM NaCl; 30 min, 37°C; washes at the same NaCl
[11] = target: fibrin made from purified fibrinogen with thrombin (UniProt P02679); experiment: radioligand binding; inhibition: 125I-factor H (2 μg/well) premixed on ice with unlabeled factor H (0-30 μg/well) or ovalbumin, on fibrin-coated wells; 30 min, 37°C
[12] = target: fibrin clots formed in human plasma (human (endogenous in plasma)) (UniProt P02679); experiment: co-sedimentation; panel of 125I-labelled plasma proteins (25,000 cpm each) present while enhanced clots formed in plasma; 16 h, 37°C; clots washed three times in 10 mM HEPES, 70 mM NaCl, 0.5 mM EDTA, 5 M urea pH 7.4

Chain of UniProt P02679 (P02679 whole entry, looked up): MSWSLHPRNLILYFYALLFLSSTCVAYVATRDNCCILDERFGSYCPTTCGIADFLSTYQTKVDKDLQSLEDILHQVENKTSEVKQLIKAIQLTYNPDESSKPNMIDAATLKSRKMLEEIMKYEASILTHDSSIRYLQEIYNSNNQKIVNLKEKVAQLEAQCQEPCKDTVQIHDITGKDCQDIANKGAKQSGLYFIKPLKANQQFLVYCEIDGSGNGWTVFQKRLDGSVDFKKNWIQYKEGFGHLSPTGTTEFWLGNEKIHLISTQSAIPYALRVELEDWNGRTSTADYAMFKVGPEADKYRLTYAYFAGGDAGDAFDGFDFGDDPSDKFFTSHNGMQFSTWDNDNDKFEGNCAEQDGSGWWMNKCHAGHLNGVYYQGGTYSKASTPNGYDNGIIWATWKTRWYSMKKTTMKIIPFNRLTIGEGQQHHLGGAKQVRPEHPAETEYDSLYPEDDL
Chain of factor H (P08603 19-1231): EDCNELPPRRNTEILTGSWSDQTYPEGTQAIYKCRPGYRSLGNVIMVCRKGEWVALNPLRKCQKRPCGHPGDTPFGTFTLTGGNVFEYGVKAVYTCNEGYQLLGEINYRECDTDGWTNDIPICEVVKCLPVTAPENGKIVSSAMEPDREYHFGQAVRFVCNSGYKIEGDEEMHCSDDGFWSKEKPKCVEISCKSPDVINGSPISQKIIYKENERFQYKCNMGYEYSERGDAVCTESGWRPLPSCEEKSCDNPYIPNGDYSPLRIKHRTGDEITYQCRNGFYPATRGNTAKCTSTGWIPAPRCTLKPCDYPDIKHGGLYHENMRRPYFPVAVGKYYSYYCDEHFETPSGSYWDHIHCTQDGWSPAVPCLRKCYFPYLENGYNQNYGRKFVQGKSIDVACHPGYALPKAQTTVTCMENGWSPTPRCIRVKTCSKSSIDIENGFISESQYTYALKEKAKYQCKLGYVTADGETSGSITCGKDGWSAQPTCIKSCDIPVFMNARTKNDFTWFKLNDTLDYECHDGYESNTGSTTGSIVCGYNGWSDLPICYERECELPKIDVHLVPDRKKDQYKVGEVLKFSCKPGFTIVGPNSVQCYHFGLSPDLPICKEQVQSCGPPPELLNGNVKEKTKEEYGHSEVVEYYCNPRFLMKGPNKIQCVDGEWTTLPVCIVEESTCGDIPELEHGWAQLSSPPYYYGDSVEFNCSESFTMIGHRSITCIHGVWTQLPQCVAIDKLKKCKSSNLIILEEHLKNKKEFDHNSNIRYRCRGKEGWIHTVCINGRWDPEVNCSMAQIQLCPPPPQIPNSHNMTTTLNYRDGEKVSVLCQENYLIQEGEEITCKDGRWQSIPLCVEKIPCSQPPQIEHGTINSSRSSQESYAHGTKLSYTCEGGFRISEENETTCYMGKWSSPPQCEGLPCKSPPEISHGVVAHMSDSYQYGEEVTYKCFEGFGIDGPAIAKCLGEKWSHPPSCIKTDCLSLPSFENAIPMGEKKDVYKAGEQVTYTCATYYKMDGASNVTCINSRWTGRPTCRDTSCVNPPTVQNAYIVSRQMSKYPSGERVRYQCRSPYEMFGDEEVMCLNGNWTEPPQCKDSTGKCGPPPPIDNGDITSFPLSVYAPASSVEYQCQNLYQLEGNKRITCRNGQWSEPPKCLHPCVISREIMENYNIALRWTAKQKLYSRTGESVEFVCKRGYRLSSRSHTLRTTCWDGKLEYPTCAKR

percent of 125I-factor H in the large cross-linked aggregate that did not enter the gel [1] | percent bound to plasma clots at 70 mM salt [2] | percent bound at 30 min, non-denaturing wash [3] | percent bound at 96 min, non-denaturing wash [3] | Kd [4] | percent of input bound (500,000 cpm/well) [4] | fold increase of percent bound, enhanced clots over plasma clots without added fibrinogen, at 140 mM NaCl [5] | percent bound to enhanced plasma clots (HEPES-1/2-saline wash) [5] | percent bound to fibrin-only clots (HEPES-1/2-saline wash) [6] | percent of input bound at saturation (input 3.5 μg/well) [7] | percent of the plasma level lost in the serum of the same plasma (healthy volunteer sample) [8] | percent bound at 30 min, after urea wash [9] | percent bound at 96 min, after urea wash [9] | percent bound at 960 min, after urea wash [9] | binding at 75 mM NaCl relative to that at 20 mM NaCl [10] | percent inhibition of the binding of 125I-factor H at an equal molar ratio of unlabeled to labeled factor H [11] | Protein incorporated into fibrin clots (%) [12] | percent bound to fibrin clots [12] | Substance
5.2% | 21.5% | 22% | 26% | 0.055 nM | 1.7% | 6 fold | 21.5% | 19% | 0.1% | 38% | 13% | 18% | 32.5% | < 50% | 48% | 28.7% | 30% | factor H (from UniProt P08603 19-1231) (natural protein)
 |  |  |  |  |  |  |  |  |  |  |  |  |  |  |  | 32.8% | 31% | plasminogen (natural protein)
